T1: substrate sequence FVQWFSKFLGK (SEQ ID NO:3)
T1 sequence: FVQWFSKFLGK


Tested on: T1, substrate sequence FVQWFSKFLGK (SEQ ID NO:3)

Row | Protein | protease specificity (cleavage activity; enzyme 5 nM, substrate 60 µM)
1 | granzyme K (enzyme, UniProt P49863 27-264, looked up, species assumed) Granzyme K: IIGGKEVSPHSRPFMASIQYGGHHVCGGVLIDPQWVLTAAHCQYRFTKGQSPTVVLGAHSLSKNEASKQTLEIKKFIPFSRVTSDPQSNDIMLVKLQTAAKLNKHVKMLHIRSKTSLRSGTKCKVTGWGATDPDSLRPSDTLREVTVTVLSRKLCNSQSYYNGDPFITKDMVCAGDAKGQKDSCKGDSGGPLICKGVFHAIVSGGHECGVATKPGIYTLLTKKYQTWIKSNLVPPHTN | the substrate sequence is highly specific for granzyme B compared to the other proteases tested
2 | C1S (enzyme, UniProt P09871 16-688, looked up, species assumed) Complement C1s subcomponent: EPTMYGEILSPNYPQAYPSEVEKSWDIEVPEGYGIHLYFTHLDIELSENCAYDSVQIISGDTEEGRLCGQRSSNNPHSPIVEEFQVPYNKLQVIFKSDFSNEERFTGFAAYYVATDINECTDFVDVPCSHFCNNFIGGYFCSCPPEYFLHDDMKNCGVNCSGDVFTALIGEIASPNYPKPYPENSRCEYQIRLEKGFQVVVTLRREDFDVEAADSAGNCLDSLVFVAGDRQFGPYCGHGFPGPLNIETKSNALDIIFQTDLTGQKKGWKLRYHGDPMPCPKEDTPNSVWEPAKAKYVFRDVVQITCLDGFEVVEGRVGATSFYSTCQSNGKWSNSKLKCQPVDCGIPESIENGKVEDPESTLFGSVIRYTCEEPYYYMENGGGGEYHCAGNGSWVNEVLGPELPKCVPVCGVPREPFEEKQRIIGGSDADIKNFPWQVFFDNPWAGGALINEYWVLTAAHVVEGNREPTMYVGSTSVQTSRLAKSKMLTPEHVFIHPGWKLLEVPEGRTNFDNDIALVRLKDPVKMGPTVSPICLPGTSSDYNLMDGDLGLISGWGRTEKRDRAVRLKAARLPVAPLRKCKEVKVEKPTADAEAYVFTPNMICAGGEKGMDSCKGDSGGAFAVQDPNDKTKFYAAGLVSWGPQCGTYGLYTRVKNYVDWIMKTMQENSTPRED | the substrate sequence is highly specific for granzyme B compared to the other proteases tested
